What was measured:
Assay in all cases: cell-based or functional assay
[1] = target: NovoSeven® (commercial recombinant human FVIIa) (human) (UniProt P08709)
[2] = target: MOD-5014 (FVIIa-CTP3: activated Factor VII with three CTP peptides attached at the C-terminus) (human) (UniProt P08709)
Factor X = Factor X (UniProt P00742 41-488, limits assumed)
Sequence of Factor X (P00742 41-488 limits assumed): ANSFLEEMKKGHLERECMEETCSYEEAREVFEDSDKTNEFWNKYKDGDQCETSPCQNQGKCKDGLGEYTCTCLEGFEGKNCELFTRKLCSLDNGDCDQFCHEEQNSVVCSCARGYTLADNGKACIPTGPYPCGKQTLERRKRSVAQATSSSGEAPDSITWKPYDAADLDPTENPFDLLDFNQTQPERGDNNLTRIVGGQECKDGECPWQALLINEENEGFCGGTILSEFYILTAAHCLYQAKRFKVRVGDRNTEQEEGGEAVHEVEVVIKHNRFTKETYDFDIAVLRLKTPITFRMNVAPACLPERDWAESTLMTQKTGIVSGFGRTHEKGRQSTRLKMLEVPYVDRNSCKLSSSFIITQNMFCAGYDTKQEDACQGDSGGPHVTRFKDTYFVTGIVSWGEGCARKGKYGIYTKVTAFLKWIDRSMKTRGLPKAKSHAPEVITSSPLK

Sequence of MOD-5014 (FVIIa-CTP3: activated Factor VII with three CTP peptides attached at the C-terminus) (human) (P08709 61-212, chain 1 of 2): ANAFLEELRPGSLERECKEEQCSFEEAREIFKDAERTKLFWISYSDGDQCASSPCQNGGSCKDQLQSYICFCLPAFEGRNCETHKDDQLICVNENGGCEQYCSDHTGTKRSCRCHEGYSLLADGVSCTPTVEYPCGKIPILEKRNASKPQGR
Sequence of MOD-5014 (FVIIa-CTP3: activated Factor VII with three CTP peptides attached at the C-terminus) (human) (P08709 other isoform, or with tags, fused parts or gaps, chain 2 of 2): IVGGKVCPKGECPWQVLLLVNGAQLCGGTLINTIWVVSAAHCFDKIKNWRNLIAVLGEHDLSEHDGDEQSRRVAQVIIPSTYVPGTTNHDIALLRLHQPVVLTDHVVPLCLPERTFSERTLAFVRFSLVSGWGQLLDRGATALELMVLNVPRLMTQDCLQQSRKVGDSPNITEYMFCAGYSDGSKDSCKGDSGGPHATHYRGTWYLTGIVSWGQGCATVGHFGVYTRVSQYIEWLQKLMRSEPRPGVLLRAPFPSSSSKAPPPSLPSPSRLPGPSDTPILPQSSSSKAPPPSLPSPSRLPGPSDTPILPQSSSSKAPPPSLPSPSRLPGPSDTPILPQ
Sequence of NovoSeven® (commercial recombinant human FVIIa) (human) (P08709 61-466 limits assumed): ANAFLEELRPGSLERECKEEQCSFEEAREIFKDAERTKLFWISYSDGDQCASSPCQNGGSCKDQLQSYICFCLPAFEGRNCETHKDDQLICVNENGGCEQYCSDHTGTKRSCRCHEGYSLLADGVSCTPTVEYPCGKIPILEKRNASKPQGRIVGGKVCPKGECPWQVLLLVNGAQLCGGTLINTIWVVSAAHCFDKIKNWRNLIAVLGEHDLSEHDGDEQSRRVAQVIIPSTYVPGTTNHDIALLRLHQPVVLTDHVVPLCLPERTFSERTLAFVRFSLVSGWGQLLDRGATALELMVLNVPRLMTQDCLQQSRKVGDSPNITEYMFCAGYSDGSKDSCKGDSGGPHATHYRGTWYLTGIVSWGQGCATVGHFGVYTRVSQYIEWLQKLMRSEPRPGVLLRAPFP
Sequence of NovoSeven® (commercial recombinant human FVIIa) (P08709 61-466 limits assumed): as above

Substance: Anti thrombin III (ATIII) (from UniProt P01008 33-464)
- % Inhibition of clotting activity, AT 1.050 ng/mL [1]: 21%
- % Inhibition of clotting activity, AT 105 ng/mL [1]: 20%
- % Inhibition of clotting activity, AT 10,500 ng/mL [1]: 30%
- % Inhibition of clotting activity, AT 525000 ng/mL [1]: 100%
- Activity (mU/mL), Staclot clotting, AT 1.050 ng/mL [1]: 69.5 mU/mL
- Activity (mU/mL), Staclot clotting, AT 10.5 ng/mL [1]: 68.4 mU/mL
- Activity (mU/mL), Staclot clotting, AT 105 ng/mL [1]: 70.2 mU/mL
- Activity (mU/mL), Staclot clotting, AT 1,050 ng/mL [1]: 66.8 mU/mL
- Activity (mU/mL), Staclot clotting, AT 10,500 ng/mL [1]: 61.5 mU/mL
- Activity (mU/mL), Staclot clotting, AT 105000 ng/mL [1]: 30.6 mU/mL
- Activity (mU/mL), Staclot clotting, AT 525000 ng/mL [1]: 0 mU/mL
- O.D, FX activation by NovoSeven (0.7 ng/ml) at AT 0.16 µg/ml [1]: 1.23 O.D
- O.D, FX activation by NovoSeven (0.7 ng/ml) at AT 4 µg/ml [1]: 1.17 O.D
- O.D, FX activation by NovoSeven (0.7 ng/ml) at AT 20 µg/ml [1]: 1.15 O.D
- O.D, FX activation by NovoSeven (0.7 ng/ml) at AT 100 µg/ml [1]: 1.14 O.D
- O.D, FX activation by NovoSeven (0.7 ng/ml) at AT 500 µg/ml [1]: 0.933 O.D
- O.D, FX activation by NovoSeven (0.7 ng/ml) at AT 1680 µg/ml [1]: 0.784 O.D
- O.D., FX activation by NovoSeven (0.7 ng/ml) with AT III 20 µg/ml and heparin 0.002 U/µl [1]: 1.24 O.D.
- O.D., FX activation by NovoSeven (0.7 ng/ml) with AT III 20 µg/ml and heparin 0.01 U/µl [1]: 1.2 O.D.
- O.D., FX activation by NovoSeven (0.7 ng/ml) with AT III 20 µg/ml and heparin 0.25 U/µl [1]: 1.04 O.D.
- O.D., FX activation by NovoSeven (0.7 ng/ml) with AT III 20 µg/ml and heparin 1.25 U/µl [1]: 0.98 O.D.
- O.D., FX activation by NovoSeven (0.7 ng/ml) with AT III 20 µg/ml and heparin 6.25 U/µl [1]: 1 O.D.
- % Inhibition of clotting activity, AT 1.050 ng/mL [2]: 25%
- % Inhibition of clotting activity, AT 10.5 ng/mL [2]: 28%
- % Inhibition of clotting activity, AT 105 ng/mL [2]: 25%
- % Inhibition of clotting activity, AT 10,500 ng/mL [2]: 25%
- % Inhibition of clotting activity, AT 105000 ng/mL [2]: 62%
- % Inhibition of clotting activity, AT 525000 ng/mL [2]: 100%
- Activity (mU/mL), Staclot clotting, AT 1.050 ng/mL [2]: 52.9 mU/mL
- Activity (mU/mL), Staclot clotting, AT 10.5 ng/mL [2]: 50.7 mU/mL
- Activity (mU/mL), Staclot clotting, AT 105 ng/mL [2]: 53.3 mU/mL
- Activity (mU/mL), Staclot clotting, AT 1,050 ng/mL [2]: 53.4 mU/mL
- Activity (mU/mL), Staclot clotting, AT 10,500 ng/mL [2]: 53 mU/mL
- Activity (mU/mL), Staclot clotting, AT 105000 ng/mL [2]: 27 mU/mL
- Activity (mU/mL), Staclot clotting, AT 525000 ng/mL [2]: 0 mU/mL
- O.D, FX activation by MOD-5014 (0.7 ng/ml) at AT 0.16 µg/ml [2]: 1.18 O.D
- O.D, FX activation by MOD-5014 (0.7 ng/ml) at AT 0.8 µg/ml [2]: 1.07 O.D
- O.D, FX activation by MOD-5014 (0.7 ng/ml) at AT 4 µg/ml [2]: 1.14 O.D
- O.D, FX activation by MOD-5014 (0.7 ng/ml) at AT 20 µg/ml [2]: 1.11 O.D
- O.D, FX activation by MOD-5014 (0.7 ng/ml) at AT 100 µg/ml [2]: 0.974 O.D
- O.D, FX activation by MOD-5014 (0.7 ng/ml) at AT 500 µg/ml [2]: 0.975 O.D
- O.D, FX activation by MOD-5014 (0.7 ng/ml) at AT 1680 µg/ml [2]: 0.656 O.D
- O.D., FX activation by MOD-5014 (0.7 ng/ml) with AT III 20 µg/ml and heparin 0.002 U/µl [2]: 1.29 O.D.
- O.D., FX activation by MOD-5014 (0.7 ng/ml) with AT III 20 µg/ml and heparin 0.01 U/µl [2]: 1.14 O.D.
- O.D., FX activation by MOD-5014 (0.7 ng/ml) with AT III 20 µg/ml and heparin 0.25 U/µl [2]: 0.017 O.D.
- O.D., FX activation by MOD-5014 (0.7 ng/ml) with AT III 20 µg/ml and heparin 1.25 U/µl [2]: 0.896 O.D.
- O.D., FX activation by MOD-5014 (0.7 ng/ml) with AT III 20 µg/ml and heparin 6.25 U/µl [2]: 1.02 O.D.

Substance: NovoSeven® (commercial recombinant human FVIIa) (from UniProt P08709 61-466) (enzyme)
- EC50 of Factor X activation (BIOPHEN FVII chromogenic assay) (Factor X): 0.38 ng/mL
- O.D, FX activation at rFVIIa 0.00128 ng/ml (Factor X): 0.123 O.D
- O.D, FX activation at rFVIIa 0.00640 ng/ml (Factor X): 0.133 O.D
- O.D, FX activation at rFVIIa 0.0320 ng/ml (Factor X): 0.138 O.D
- O.D, FX activation at rFVIIa 0.160 ng/ml (Factor X): 0.178 O.D
- O.D, FX activation at rFVIIa 0.80 ng/ml (Factor X): 0.303 O.D
- O.D, FX activation at rFVIIa 4.00 ng/ml (Factor X): 0.352 O.D
- O.D, FX activation at rFVIIa 20.00 ng/ml (Factor X): 0.365 O.D
- O.D, FX activation at rFVIIa 100.00 ng/ml (Factor X): 0.363 O.D

From patent US20180087042A1 (OPKO BIOLOGICS, published 2018)
